Laboratory results taken from article PMC2959125 (Biochemistry, 2010).
Where a chain is given by its changes, count along the chain named. Names may count otherwise.

B1: N-acetyl-L-ornithine transcarbamylase from Xanthomonas campestris, K302A mutant (enzyme)
chain: MSLKHFLNTQDWSRAELDALLTQAALFKRNKLGSELKGKSIALVFFNPSMRTRTSFELGAFQLGGHAVVLQPGKDAWPIEFNLGTVMDGDTEEHIAEVARVLGRYVDLIGVRAFPKFVDWSKDREDQVLKSFAKYSPVPVINMETITHPCQELAHALALQEHFGTPDLRGKKYVLTWTYHPKPLNTAVANSALTIATRMGMDVTLLCPTPDYILDERYMDWAAQNVAESGGSLQVSHDIDSAYAGADVVYAKSWGALPFFGNWEPEKPIRDQYQHFIVDERKMALTNNGVFSHCLPLRRNVAATDAVMDSPNCIAIDEAENRLHVQKAIMAALVGQSRP
B2: N-acetyl-L-ornithine transcarbamylase from Xanthomonas campestris, K302E mutant (enzyme)
chain: B1 chain with A302E
B3: N-acetyl-L-ornithine transcarbamylase from Xanthomonas campestris, K302R mutant (enzyme)
chain: B1 chain with A302R

Biological target: the molecule itself
Test: crystal structure

Protein | binding result
B1 | binds
B2 | binds
B3 | binds
